In patent US20200102347A1 (AUCTUS BIOLOGIES, published 2020):
Residue numbers refer to the chain shown, from its start. In names and notes the source's numbering stands. No end group written: not given here. *: point of attachment. RhodamineB = CCN(CC)c1ccc2c(-c3ccccc3C(=O)*)c3ccc(=[N+](CC)CC)cc-3oc2c1

T1: MaturePDGF-β_NterminalPeptide
T1 construct: an N-terminal G was added and is left out of the numbering; also called PDGF-β peptide
T1 peptide: RhodamineB-GSLGSLTIAEPAMIAE

T2: RPtag(small) Nd2, Cd4 (Thermoanaerobacter tengcongensis)
T2 peptide: RhodamineB-KIPNFIPAELKLITK

T3: NativeRPtag(large)_with_Tags_and_Cys (Thermoanaerobacter tengcongensis)
T3 construct: Unlabeled in anisotropy assays; coupled through the engineered N-terminal Cys to SulfoLink agarose or maleimide plates in column, pull-down and ELISA assays
T3 chain: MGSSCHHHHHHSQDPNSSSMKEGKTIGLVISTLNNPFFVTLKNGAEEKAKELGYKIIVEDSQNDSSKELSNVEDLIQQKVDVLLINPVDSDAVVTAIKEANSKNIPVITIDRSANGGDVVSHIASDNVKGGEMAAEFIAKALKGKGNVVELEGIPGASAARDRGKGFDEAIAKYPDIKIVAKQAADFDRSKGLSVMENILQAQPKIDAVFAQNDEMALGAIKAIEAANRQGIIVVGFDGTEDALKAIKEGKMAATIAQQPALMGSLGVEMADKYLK

T4: RPtag(large) f137d (Thermoanaerobacter tengcongensis)
T4 construct: also called F137D RPtag(large)
T4 chain: T3 chain with F137D

B1: RPtag(large) H122L, A253R double mutant (designed binder)
chain: T3 chain with H122L, A253R
notes: Unlabeled against the rhodamine peptides; also called RPtag (large) h1221, a253r; double mutant RPtag(large)
B2: RPtag(small) Nd2, p5a, e18a (peptide)
peptide: RhodamineB-KIANFIPAELKLITKANVQ
modifications: also: also used unlabeled as competitor
notes: Rhodamine labeled in the Kd assays; also called RPtag(small) (tight)
B3: native RPtag(small) (peptide)
peptide: RhodamineB-GEKIPNFIPAELKLITKENVQ
notes: Synthetic peptide
B4: RPtag(small) l14k (peptide)
peptide: RhodamineB-GEKIPNFIPAELKKITKENVQ
notes: also called L14K RPtag(small)
B5: Nterminally_tagged_RPtag(small)Nd8,Cd4(fast)_tagRFP (other)
chain: MGSSPAELKLITKGSENLYFQGGSMVSKGEELIKENMHMKLYMEGTVNNHHFKCTSEGEGKPYEGTQTMRIKVVEGGPLPFAFDILATSFMYGSRTFINHTQGIPDFFKQSFPEGFTWERVTTYEDGGVLTATQDTSLQDGCLIYNVKIRGVNFPSNGPVMQKKTLGWEANTEMLYPADGGLEGRSDMALKLVGGGHLICNFKTTYRSKKPAKNLKMPGVYYVDHRLERIKEADKETYVEQHEVAVARYCDLPSKLGHKLNGSSGHHHHHHHH
notes: also called tagRFP containing an N-terminal RPtag (small) Nd8Cd4 tag

How the values were obtained:
[1] = target: T1, MaturePDGF-β_NterminalPeptide; test: fluorescence anisotropy, 20 nM rhodamine PDGF-β N-terminal peptide
Method: (§1) After the incubation, fluorescence anisotropy was measured, and the resultant curves were fit with the equation f=y0+(ymax−y0)*(Ptot+x+Kd−sqrt((Ptot+x+Kd)\hat{ }2−4*Ptot*x))/(2*Ptot), where y0 is the baseline anisotropy, ymax is the maximum anisotropy, Ptot is the fixed concentration of labeled peptide used, x is the variable concentration of protein used, and Kd is the measured Kd. […] Buffer was 50 mM Tris pH 8.0, 0.005% Tween20.

RPtag(small) Nd2, Cd4 = target: T2, RPtag(small) Nd2, Cd4; test: fluorescence anisotropy, 2 nM rhodamine Nd2Cd4
Method: as §1

[2] = target: T5, PDGF-β dimer (recombinant, purified and refolded mature PDGF-β) (Homo sapiens (Human), UniProt P01127 82-190); test: fluorescence anisotropy; 100 nM FITC-labeled RPtag large double mutant, unlabeled PDGF-β dimer titrated, 1 h at room temperature
T5 construct: also called mature PDGF-β dimer
Method: After 1 h incubation at room temperature, fluorescence anisotropy was measured, and the resultant curves were fit to a standard binding equation.

[3] = target: T3, NativeRPtag(large)_with_Tags_and_Cys; test: fluorescence anisotropy; PG (50%)
[4] = target: T3, NativeRPtag(large)_with_Tags_and_Cys; test: fluorescence anisotropy; acetone (20%)
[5] = target: T3, NativeRPtag(large)_with_Tags_and_Cys; test: fluorescence anisotropy; KCl (3M)
[6] = target: T3, NativeRPtag(large)_with_Tags_and_Cys; test: fluorescence anisotropy; NH4SO4 (3M)
[7] = target: T3, NativeRPtag(large)_with_Tags_and_Cys; test: fluorescence anisotropy; EtOH (20%)
[8] = target: T3, NativeRPtag(large)_with_Tags_and_Cys; test: fluorescence anisotropy; DMSO (20%)
[9] = target: T3, NativeRPtag(large)_with_Tags_and_Cys; test: fluorescence anisotropy; MgCl2 (3M)
[10] = target: T3, NativeRPtag(large)_with_Tags_and_Cys; test: fluorescence anisotropy; DTT (100 mM)
[11] = target: T3, NativeRPtag(large)_with_Tags_and_Cys; test: fluorescence anisotropy; 50 mM Tris pH 8.0, 0.005% Tween 20, no additive
[12] = target: T3, NativeRPtag(large)_with_Tags_and_Cys; test: fluorescence anisotropy; MeOH (20%)
[13] = target: T3, NativeRPtag(large)_with_Tags_and_Cys; test: fluorescence anisotropy; MnSO4 (10 mM)
[14] = target: T3, NativeRPtag(large)_with_Tags_and_Cys; test: fluorescence anisotropy; No Additive; No Additive; 100 mM Tris pH 8.0, 0.005% Tween 20 (Table 3)
[15] = target: T3, NativeRPtag(large)_with_Tags_and_Cys; test: fluorescence anisotropy, competitor chase; 50 mM Tris pH 8.0, 0.005% Tween 20, no additive
[16] = target: T3, NativeRPtag(large)_with_Tags_and_Cys; test: competition fluorescence anisotropy; 1 µM RPtag large and 1 µM rhodamine PDGF-β N-terminal peptide (the displaced ligand), unlabeled Nd2,p5a,e18a titrated, 1 h; 50 mM Tris pH 8.0, 0.005% Tween20
Method: The curves were fit with the equation f=y0+(ymax−y0)*(Ptot+x+Kd−sqrt((Ptot+x+Kd)\hat{ }2−4*Ptot*x))/(2*Ptot), where y0 is the baseline anisotropy, ymax is the maximum anisotropy, Ptot is the fixed concentration of labeled peptide used, x is the variable concentration of protein used, and Kd is the measured Kd. […] The curves were fit empirically to a 4 parameter logistic regression. In both cases, the buffer was 50 mM Tris pH 8.0, 0.005% Tween20. Curves were fit in 4 independent trials each, and the data was averaged for display. Points are mean±SEM (n=3).

[17] = target: T3, NativeRPtag(large)_with_Tags_and_Cys; test: fluorescence anisotropy; BME (10%)
[18] = target: T3, NativeRPtag(large)_with_Tags_and_Cys; test: fluorescence anisotropy; glycerol (20%)
[19] = target: T3, NativeRPtag(large)_with_Tags_and_Cys; test: fluorescence anisotropy; ribose (3M)
[20] = target: T3, NativeRPtag(large)_with_Tags_and_Cys; test: fluorescence anisotropy; Tween20 (2%)
[21] = target: T3, NativeRPtag(large)_with_Tags_and_Cys; test: fluorescence anisotropy; TritonX-100 (2%)
[22] = target: T3, NativeRPtag(large)_with_Tags_and_Cys; test: fluorescence anisotropy; NiCl2 (100 mM)
[23] = target: T3, NativeRPtag(large)_with_Tags_and_Cys; test: fluorescence anisotropy; CaCl2 (3M)
[24] = target: T3, NativeRPtag(large)_with_Tags_and_Cys; test: fluorescence anisotropy; NaCl (3M)
[25] = target: T3, NativeRPtag(large)_with_Tags_and_Cys; test: fluorescence anisotropy; sorbitol (3M)
[26] = target: T3, NativeRPtag(large)_with_Tags_and_Cys; test: calculated from koff and Kd; 50 mM Tris pH 8.0, 0.005% Tween 20, no additive
Bovine Serum Albumin = target: T6, Bovine Serum Albumin (bovine, UniProt P02769 25-607); test: fluorescence anisotropy; 1 nM rhodamine native RPtag (small), BSA titrated
T6 construct: also called BSA
Method: Kd's were calculated according to the equation f=y0+(ymax−y0)*(Ptot+x+Kd−sqrt((Ptot+x+Kd)\hat{ }2−4*Ptot*x))/(2*Ptot), where y0 is the baseline anisotropy, ymax is the maximum anisotropy, Ptot is the fixed concentration of labeled peptide used, x is the variable concentration of protein used, and Kd is the measured Kd.

[27] = target: T3, NativeRPtag(large)_with_Tags_and_Cys; test: fluorescence anisotropy; No Additive
[28] = target: T3, NativeRPtag(large)_with_Tags_and_Cys; test: fluorescence anisotropy, association kinetics
[29] = target: T3, NativeRPtag(large)_with_Tags_and_Cys; test: calculated from koff and Kd; no additive; calculated in the text from koff and Kd
[30] = target: T3, NativeRPtag(large)_with_Tags_and_Cys; test: fluorescence anisotropy, chase with 0.1 mM unlabeled native RPtag small, first order fit; no additive; first order fit of the dissociation traces (n=15)
From the text: Data processing was done as in panel a, except the red fits were to the single exponential decay equation y=y0+A*exp(−b*t).
Panel e is a graph of the initial rates of the traces represented in d. […] Data are mean±SE (n=3).

RPtag(large) f137d = target: T4, RPtag(large) f137d; test: fluorescence anisotropy (FIG. 14)
Method: Resultant curves were fit with the equation f=y0+(ymax−y0)*(Ptot+x+Kd−sqrt((Ptot+x+Kd)\hat{ }2−4*Ptot*x))/(2*Ptot), where y0 is the baseline anisotropy, ymax is the maximum anisotropy, Ptot is the fixed concentration of labeled peptide used, x is the variable concentration of protein used, and Kd is the measured Kd. […] Buffer was 50 mM Tris pH 8.0, 0.005% tween20.

[31] = target: T3, NativeRPtag(large)_with_Tags_and_Cys; test: immobilized RPtag(large) column; bound in 3 M NaCl, eluted with 3 M imidazole
Method: Briefly, columns, as described above, were first equilibrated with 10 mL 100 mM Tris pH 8.0, 3 M NaCl, 0.005% Tween20. […] The column was then washed with 10 mL of the same buffer. Finally, bound target molecules were eluted with 10 mL of 100 mM Tris pH 8.0, 3 M imidazole, 0.005% Tween20.

T5 sequence (P01127 82-190): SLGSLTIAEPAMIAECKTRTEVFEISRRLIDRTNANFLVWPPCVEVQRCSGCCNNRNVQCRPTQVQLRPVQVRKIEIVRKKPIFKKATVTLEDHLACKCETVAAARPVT
T6 sequence (P02769 25-607 limits assumed): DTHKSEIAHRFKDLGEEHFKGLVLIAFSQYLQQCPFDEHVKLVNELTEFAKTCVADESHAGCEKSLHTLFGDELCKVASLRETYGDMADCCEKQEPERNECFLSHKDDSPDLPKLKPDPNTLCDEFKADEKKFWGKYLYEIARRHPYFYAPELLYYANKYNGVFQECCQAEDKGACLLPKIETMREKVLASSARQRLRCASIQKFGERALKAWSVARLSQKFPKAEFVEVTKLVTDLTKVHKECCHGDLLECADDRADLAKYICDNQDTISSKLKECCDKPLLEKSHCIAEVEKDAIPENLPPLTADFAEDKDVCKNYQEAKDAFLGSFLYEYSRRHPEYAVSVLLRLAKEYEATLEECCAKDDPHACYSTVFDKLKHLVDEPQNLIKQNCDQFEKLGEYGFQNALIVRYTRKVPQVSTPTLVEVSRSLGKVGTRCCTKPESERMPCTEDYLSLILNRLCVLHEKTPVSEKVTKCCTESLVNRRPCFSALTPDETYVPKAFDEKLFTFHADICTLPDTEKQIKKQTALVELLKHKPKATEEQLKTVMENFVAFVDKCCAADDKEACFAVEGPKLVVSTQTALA

Binder	Kd [3] [nM]	Kd [4] [nM]	Kd [5] [nM]	Kd [6] [nM]	Kd [7] [nM]	Kd [8] [nM]	Kd [9] [nM]	Kd [10] [nM]	Kd [11] [nM]	Kd [12] [nM]	Kd [13] [nM]	koff [15] [s⁻¹]	Kd [17] [nM]	Kd [18] [nM]	Kd [19] [nM]	Kd [20] [nM]	Kd [21] [nM]	Kd [22] [nM]	Kd [23] [nM]	Kd [24] [nM]	further results
B1																					Kd [1]: 1500 nM; Kd (RPtag(small) Nd2, Cd4): 3.1 nM; Kd [2]: 75 nM
B2	49	0.019	0.011	44	0.1	0.023	350	0.073	0.047	0.056	22	0.000217	6.7	< 0.001	< 0.001	4.7	0.046	2.2	150	< 0.001	Kd [14]: 0.037 nM; IC50 (read off the curve) [16]: ~500 nM; Kd [25]: < 0.001 nM; kon [26]: 4.67e+06 M⁻¹ s⁻¹
B3	19	0.15	< 0.001	1.5	0.17	0.17	124	0.51	0.21	0.11	160	0.000152	5.3	0.034	0.023	0.49	0.64	3.2	330	0.0027	binding result (Bovine Serum Albumin): no binding; Kd [27]: 0.21 nM; Keq (S-S*) [28]: 1.6; kf (S to S*) [28]: 0.092 min⁻¹; kr (S* to S) [28]: 0.056 min⁻¹; kon [29]: ~767000 M⁻¹ s⁻¹; Kd [25]: 2.5 nM; koff [30]: 0.0002 s⁻¹; kon [26]: 717000 M⁻¹ s⁻¹
B4																					binding result (RPtag(large) f137d): binds
B5																					binding result [31]: binds
